Experimental findings from publication doi:10.1101/102160 are described below.

Experiment [1] deals with CTD2, C-terminal domain of the OCP2 from Fremyella diplosiphon, with C-terminal HisTag (Fremyella diplosiphon UTEX481). Kind of experiment: SEC.
Experiment [2] has as its target NTD1-CTD1 heterodimer (with canthaxanthin) (Fremyella diplosiphon UTEX481). Kind of experiment: SEC.

“CTD2, C-terminal domain of the OCP2 from Fremyella diplosiphon, with C-terminal HisTag (domain or fragment)” had a stoichiometry N in experiment [1] of 2. “NTD1-CTD1 heterodimer (with canthaxanthin) (complex)” yielded a stoichiometry N in experiment [2] of 2.
